Assay results as given in PMC10397247.
One block for each binder: values may come before it.

Legend:
[1] = biological target: T1, 4H3753-AA; test: two-hybrid library CCmax; settings: mean of both orientations;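 also: natural log of median RNA to DNA barcode read ratio; higher means stronger binding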
T1 chain: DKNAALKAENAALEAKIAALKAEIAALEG

[2] = biological target: T2, 4H3865-AA; test: two-hybrid library CCmax; settings: mean of both orientations;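 also: natural log of median RNA to DNA barcode read ratio; higher means stronger binding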
T2 chain: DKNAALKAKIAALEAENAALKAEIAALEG

[3] = biological target: T3, 4H3395-AA; test: two-hybrid library CCmax; settings: mean of both orientations;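 also: natural log of median RNA to DNA barcode read ratio; higher means stronger binding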
T3 chain: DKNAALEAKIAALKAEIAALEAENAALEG

[4] = biological target: T4, 4H629-AA; test: two-hybrid library CCmax; settings: mean of both orientations;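 also: natural log of median RNA to DNA barcode read ratio; higher means stronger binding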
T4 chain: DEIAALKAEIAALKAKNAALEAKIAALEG

[5] = biological target: T5, 4H2725-AA; test: two-hybrid library CCmax; settings: mean of both orientations;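 also: natural log of median RNA to DNA barcode read ratio; higher means stronger binding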
T5 chain: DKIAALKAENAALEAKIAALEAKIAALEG

[6] = biological target: T6, 4H3016-AA; test: two-hybrid library CCmax; settings: mean of both orientations;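 also: natural log of median RNA to DNA barcode read ratio; higher means stronger binding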
T6 chain: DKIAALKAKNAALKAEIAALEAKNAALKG

[7] = biological target: T7, 4H930-AA; test: two-hybrid library CCmax; settings: mean of both orientations
T7 chain: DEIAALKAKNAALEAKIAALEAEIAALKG

[8] = biological target: T8, 4H3381-AA; test: two-hybrid library CCmax; settings: mean of both orientations
T8 chain: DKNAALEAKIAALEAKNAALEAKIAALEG

[9] = biological target: T9, 4H536-AA; test: two-hybrid library CCmax; settings: mean of both orientations
T9 chain: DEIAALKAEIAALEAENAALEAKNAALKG

[10] = biological target: T10, 4H3120-AA; test: two-hybrid library CCmax; settings: mean of both orientations
T10 chain: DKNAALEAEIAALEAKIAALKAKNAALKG

[11] = biological target: T11, 4H2865-AA; test: two-hybrid library CCmax; settings: mean of both orientations
T11 chain: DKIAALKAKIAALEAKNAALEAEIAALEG

[12] = biological target: T12, 4H310-AA; test: two-hybrid library CCmax; settings: mean of both orientations
T12 chain: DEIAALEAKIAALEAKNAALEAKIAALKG

[13] = biological target: T13, 4H909-AA; test: two-hybrid library CCmax; settings: mean of both orientations
T13 chain: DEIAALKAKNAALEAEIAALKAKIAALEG

[14] = biological target: T14, 4H2698-AA; test: two-hybrid library CCmax; settings: mean of both orientations
T14 chain: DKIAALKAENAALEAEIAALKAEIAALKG

[15] = biological target: T15, 4H850-AA; test: two-hybrid library CCmax; settings: mean of both orientations
T15 chain: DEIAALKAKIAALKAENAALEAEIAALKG

[16] = biological target: T16, 4H797-AA; test: two-hybrid library CCmax; settings: mean of both orientations
T16 chain: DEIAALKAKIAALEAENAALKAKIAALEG

[17] = biological target: T17, 4H3130-AA; test: two-hybrid library CCmax; settings: mean of both orientations
T17 chain: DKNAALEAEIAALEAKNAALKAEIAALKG

[18] = biological target: T18, 4H891-AA; test: two-hybrid library CCmax; settings: mean of both orientations
T18 chain: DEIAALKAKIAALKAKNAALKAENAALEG

[19] = biological target: T19, 4H745-AA; test: two-hybrid library CCmax; settings: mean of both orientations
T19 chain: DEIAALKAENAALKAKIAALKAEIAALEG

[20] = biological target: T20, 4H94-AA; test: two-hybrid library CCmax; settings: mean of both orientations
T20 chain: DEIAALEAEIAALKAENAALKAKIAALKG

[21] = biological target: T21, 4H3165-AA; test: two-hybrid library CCmax; settings: mean of both orientations
T21 chain: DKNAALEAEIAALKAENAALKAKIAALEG

[22] = biological target: T22, 4H570-AA; test: two-hybrid library CCmax; settings: mean of both orientations
T22 chain: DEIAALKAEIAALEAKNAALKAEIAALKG

[23] = biological target: T23, 4H3410-AA; test: two-hybrid library CCmax; settings: mean of both orientations
T23 chain: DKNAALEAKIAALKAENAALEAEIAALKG

[24] = biological target: T24, 4H3590-AA; test: two-hybrid library CCmax; settings: mean of both orientations
T24 chain: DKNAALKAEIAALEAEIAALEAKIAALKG

[25] = biological target: T25, 4H3009-AA; test: two-hybrid library CCmax; settings: mean of both orientations
T25 chain: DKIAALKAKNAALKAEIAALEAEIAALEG

[26] = biological target: T26, 4H710-AA; test: two-hybrid library CCmax; settings: mean of both orientations
T26 chain: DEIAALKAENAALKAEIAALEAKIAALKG

[27] = biological target: T27, 4H3697-AA; test: two-hybrid library CCmax; settings: mean of both orientations
T27 chain: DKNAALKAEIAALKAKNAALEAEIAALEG

[28] = biological target: T28, 4H485-AA; test: two-hybrid library CCmax; settings: mean of both orientations
T28 chain: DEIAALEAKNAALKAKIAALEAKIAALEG

[29] = biological target: T29, 4H2649-AA; test: two-hybrid library CCmax
T29 chain: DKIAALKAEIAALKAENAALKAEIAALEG

[30] = biological target: T30, 4H458-AA; test: two-hybrid library CCmax; settings: mean of both orientations
T30 chain: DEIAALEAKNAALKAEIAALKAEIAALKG

[31] = biological target: T31, APC6108-AA; test: two-hybrid library CCmax
T31 chain: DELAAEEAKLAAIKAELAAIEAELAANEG

[32] = biological target: T32, APC8910-AA; test: two-hybrid library CCmax; settings: mean of both orientations
T32 chain: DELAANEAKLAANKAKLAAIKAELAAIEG

[33] = biological target: T33, APC9096-AA; test: two-hybrid library CCmax; settings: mean of both orientations
T33 chain: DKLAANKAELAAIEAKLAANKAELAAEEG

[34] = biological target: T34, APC8191-AA; test: two-hybrid library CCmax; settings: mean of both orientations
T34 chain: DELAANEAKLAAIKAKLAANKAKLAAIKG

[35] = biological target: T35, APC9319-AA; test: two-hybrid library CCmax; settings: mean of both orientations
T35 chain: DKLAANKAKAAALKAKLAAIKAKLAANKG

[36] = biological target: T36, APC7099-AA; test: two-hybrid library CCmax; settings: mean of both orientations
T36 chain: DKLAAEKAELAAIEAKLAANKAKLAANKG

[37] = biological target: T37, 4H446-AA; test: two-hybrid library CCmax; settings: mean of both orientations
T37 chain: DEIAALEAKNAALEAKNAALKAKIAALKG

[38] = biological target: T38, 4H3449-AA; test: two-hybrid library CCmax; settings: mean of both orientations
T38 chain: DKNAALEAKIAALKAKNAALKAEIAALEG

[39] = biological target: T39, 4H63-AA; test: two-hybrid library CCmax; settings: mean of both orientations
T39 chain: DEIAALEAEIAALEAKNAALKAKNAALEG

[40] = biological target: T40, 4H3629-AA; test: two-hybrid library CCmax; settings: mean of both orientations
T40 chain: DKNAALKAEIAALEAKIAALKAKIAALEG

[41] = biological target: T41, 4H341-AA; test: two-hybrid library CCmax; settings: mean of both orientations
T41 chain: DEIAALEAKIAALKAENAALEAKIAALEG

[42] = biological target: T42, 4H432-AA; test: two-hybrid library CCmax; settings: mean of both orientations
T42 chain: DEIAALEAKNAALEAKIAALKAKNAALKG

[43] = biological target: T43, 4H3915-AA; test: two-hybrid library CCmax; settings: mean of both orientations
T43 chain: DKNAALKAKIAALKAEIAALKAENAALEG

[44] = biological target: T44, 4H3619-AA; test: two-hybrid library CCmax; settings: mean of both orientations
T44 chain: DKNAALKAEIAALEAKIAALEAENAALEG

[45] = biological target: T45, 4H3974-AA; test: two-hybrid library CCmax; settings: mean of both orientations
T45 chain: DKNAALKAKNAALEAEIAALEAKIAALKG

[46] = biological target: T46, 4H3777-AA; test: two-hybrid library CCmax; settings: mean of both orientations
T46 chain: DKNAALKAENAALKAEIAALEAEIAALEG

[47] = biological target: T47, 4H380-AA; test: two-hybrid library CCmax; settings: mean of both orientations
T47 chain: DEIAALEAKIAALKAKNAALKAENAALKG

[48] = biological target: T48, 4H324-AA; test: two-hybrid library CCmax
T48 chain: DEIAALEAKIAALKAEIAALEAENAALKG

[49] = biological target: T49, 4H492-bA; test: two-hybrid library CCNG1
T49 chain: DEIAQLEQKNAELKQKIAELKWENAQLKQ

[50] = biological target: T50, 4H741-bA; test: two-hybrid library CCNG1
T50 chain: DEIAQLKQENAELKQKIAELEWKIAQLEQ

Binder: DELAAEEAKLAAIKAELAAIEAELAANEG [APC6108-AA]
interaction score [31]: -1.61 | interaction score [32]: -2.2 | interaction score [33]: -1.73 | interaction score [34]: -1.6 | interaction score [35]: -1.1 | interaction score [36]: -1.52

Binder: DEIAALEAKIAALKAEIAALEAENAALKG [4H324-AA]
interaction score [37]: -1.06 | interaction score [38]: -1.69 | interaction score [39]: -0.0237 | interaction score [40]: 1.36 | interaction score [41]: -0.39 | interaction score [42]: -0.834 | interaction score [43]: 0.128 | interaction score [44]: 1.47 | interaction score [45]: 1.2 | interaction score [46]: -1.37 | interaction score [47]: 0.833 | interaction score [48]: 1.11

Other lines, results leading:

interaction score [1]: -1.64 | interaction score [2]: -1.59 | interaction score [3]: -1.27 | interaction score [4]: -0.681 | interaction score [5]: 0.985 | interaction score [6]: -1.64 | interaction score [7]: -0.569 | interaction score [8]: -1.34 | interaction score [9]: 0.807 | interaction score [10]: -1.41 | interaction score [11]: -1.38 | interaction score [12]: -0.563 | interaction score [13]: -1.6 | interaction score [14]: -1.14 | interaction score [15]: 1.99 | interaction score [16]: 0.345 | interaction score [17]: -0.528 | interaction score [18]: -1.86 | interaction score [19]: -0.16 | interaction score [20]: 2.21 | interaction score [21]: 1.07 | interaction score [22]: 1.86 | interaction score [23]: -0.287 | interaction score [24]: -0.789 | interaction score [25]: -0.366 | interaction score [26]: -1.42 | interaction score [27]: -1.81 | interaction score [28]: -1.19 | interaction score [29]: 0.376 | interaction score [30]: -1.33
Binder: DKIAALKAEIAALKAENAALKAEIAALEG [4H2649-AA]

interaction score [49]: -0.566 | interaction score [50]: -1.59
Binder: DEIAQLEQKNAELKQKIAELKWENAQLKQ [4H492-bA]
